From paper PMC4622665 (mAbs, 2014) come the findings set out here.

The target in this assay is human formyl peptide receptor 1 (human, UniProt P21462). The assay is described as follows: FMAT competition binding on cells.
human formyl peptide receptor 1, sequence (P21462 whole entry): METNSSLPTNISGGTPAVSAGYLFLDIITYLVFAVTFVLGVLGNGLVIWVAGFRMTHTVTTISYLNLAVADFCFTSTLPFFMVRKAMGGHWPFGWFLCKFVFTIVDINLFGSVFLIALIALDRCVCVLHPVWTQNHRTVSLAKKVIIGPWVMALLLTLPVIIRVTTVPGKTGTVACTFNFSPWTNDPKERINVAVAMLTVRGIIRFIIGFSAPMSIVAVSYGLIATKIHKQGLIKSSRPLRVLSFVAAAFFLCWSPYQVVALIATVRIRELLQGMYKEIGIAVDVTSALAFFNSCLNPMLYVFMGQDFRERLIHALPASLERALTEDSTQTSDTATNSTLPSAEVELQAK

B1: Fpro0084 IgG (antibody, V domains shown)
VH: EVQLVESGGGLVKPGGSLRLSCAASGFTFSNAWMNWVRQAPGKGLEWVGRIKSKTDGGAADYAAPVKGRFTISRDDSKNTLYLQMNSLKTEDTAVYYCTTDQLGYDFWSGYYTDTLYYYFGMDVWGPGTTVTVSS
VL: DIVMTQSPLSLPVTPGEPASISCRSSQQLQAYDGHNYLDWYLQKPGQSPQVLIYLGSNRASGVPDRFSGSGSGTDFTLKISRVEAEDVGVYYCMQALQTPLTFGGGTKVEIK
Broadly, the IC50 is the point on the concentration scale where inhibition reaches its midpoint. For B1, the IC50 stood at 13 nM.

B2: Fpro0067 IgG (antibody, V domains shown)
VH: EVQLVESGGGLVKPGGSLRLSCAASGFTFSNAWMNWVRQAPGKGLEWVGRIKSKTDGGAADYAAPVKGRFTISRDDSKNTLYLQMNSLKTEDTAVYYCTTDQLGYDFWSGYYTDTLYYYFGMDVWGPGTTVTVSS
VL: DIVMTQSPLSLPVTPGEPASISCRSSQPLLAMDGHNYLDWYLQKPGQSPQVLIYQSKWRASGVPDRFSGSGSGTDFTLKISRVEAEDVGVYYCMQALQTPLTFGGGTKVEIK
Molecule B2 registered an IC50 of 14 nM.

B3: Hy38-1 IgG1 (antibody, V domains shown)
VH: EVQLVESGGGLVKPGGSLRLSCAASGFTFSNAWMNWVRQAPGKGLEWVGRIKSKTDGGAADYAAPVKGRFTISRDDSKNTLYLQMNSLKTEDTAVYYCTTDQLGYDFWSGYYTDTLYYYFGMDVWGPGTTVTVSS
VL: not shown
For B3, the IC50 was 32 nM.
